The record followed here is article PMC7756681, “Functional Hybrid Molecules for the Visualization of Cancer: PESIN‐Homodimers Combined with Multimodal Molecular Imaging Probes for Positron Emission Tomography and Optical Imaging: Suited for Tracking of GRPR‐Positive Malignant Tissue” (Chemistry (Weinheim an Der Bergstrasse, Germany), 2020).

The logD is the decadic logarithm of the distribution of all forms, ionised or not, between an organic phase and buffer at a given pH. What is called IC50 is the midpoint of a concentration-inhibition curve.

Data set [1] is described as follows: LogD determination of 68Ga-labeled MIUs and bioconjugates (water/1-octanol partition, γ-counter). Conditions: pH 7.4. As to the method: Following the synthesis of the MIUs 6 a–13 a and the corresponding bioconjugates 6–13, the radiolabeling efficiency of the compounds with ^68Ga^3+ was investigated. […] In the following, we investigated the lipophilicity of the MIUs [^68Ga]6 a–[^68Ga]13 a and their bioconjugates [^68Ga]6–[^68Ga]13 (Table 1 and Figure 2 C,D).
(§1) A solution of the respective multimodal imaging unit (MIU) 6a – 13a (5 nmol) or multimodal imaging agent 6 - 14 (5 nmol) in H2O (Tracepur quality, 1mM) was added to 90 - 120 MBq of [68Ga]GaCl in a solution obtained by fractioned elution of an IGG 68Ge/68Ga generator system […]
(§2) with HCl (0.1 M, 1.6 mL) and subsequent titration to pH 3.5 – 4.2 by addition of sodium acetate solution (1.25 M, 50 – 75 µL). All labeling experiments were performed by addition of 2 mg ascorbic acid to suppress radiolysis-induced product fragmentation. In the labeling experiments of the MIUs 6a – 13a, 1 - 4 mg TCEP x HCl were added and the pH was adjusted to 3.5 – 4.2 by addition of sodium acetate solution (1.25 M). After reaction for 10 min at 45°C, the reaction mixtures were analyzed by analytical radio-HPLC.
(§3) For 68Ga-6/6a – 68Ga-13/13a, the water/1-octanol partition coefficient (log ) was determined by […]
adding 5 µL of the respectively 68Ga-labeled compound (0.8 – 1.2 MBq) to a mixture of phosphate buffer (0.05 M, pH 7.4, 795 µL) and 1-octanol (800 µL). The mixtures were intensively shaken for 5 minutes on a vibrating plate. After subsequent centrifugation at 13 000 rpm for 5 min, 125 µL were taken from each phase and measured in a γ-counter. The logD values were calculated from three or four independent experiments, each performed in triplicate.
For 14, the water/1-octanol partition coefficient (logD) was determined by semipreparative HPLC.
For this purpose, 10 µL solution (c = 5 x 10-4 mol/L) of the substance were added to a mixture of 1 mL 1-octanol and 990 µL phosphate buffered solution (0.05 M, pH 7.4) and the mixture was vigorously shaken for 5 minutes. After centrifugation, the phases were separated and both phases were analyzed by semipreparative HPLC. The logD was determined by three separate measurements, each experiment performed in triplicate.
(§4) Competitive receptor binding assay
(§5) Stably GRPR-transfected Human Embryonic Kidney 293 cells (HEK-GRPR) were cultured at 37°C in Dulbecco’s Modified Eagle’s Medium (DMEM, high glucose, GlutaMax-I, 500 mL) […]
(§6) a humidified atmosphere containing 5 % CO2. The medium was exchanged every two or three days and cells were split at >75 % confluence. In vitro binding affinities were determined via competitive displacement experiments which were performed at least trice, each experiment performed in triplicate. A Millipore Multiscreen punch kit and Millipore 96 well filter plates (pore size 1.2 µm) were used. The plates were incubated with PBS/BSA (1%) solution (each well 200 µL) for one hour before use. HEK-GRPR cells were harvested and suspended carefully in Opti- […]

Data set [2] can be described thus: Photophysical properties (absorption and emission spectra in PBS). Type of data set: physicochemical. An excerpt: After studying the chemical and biological properties of the MIUs and their corresponding multimodal imaging agents, the photophysical properties of the substances were finally under investigation. Here, we found no significant decrease or shift of the optical and fluorescent characteristics of the bioconjugates compared to the MIUs (Table 2).
Fig. S27 Normalized absorption and emission spectra of 7 (left) and 7a (right), recorded in PBS
at a concentration of c = 1.0 x 10-5 mol/L, emission wavelength stated in the graph (bottom, left
Fig. S28 Normalized absorption and emission spectra of 8 (left) and 8a (right), recorded in PBS
Fig. S29 Normalized absorption and emission spectra of 9 (left) and 9a (right), recorded in PBS […]
Fig. S30 Normalized absorption and emission spectra of 10 (left) and 10a (right), recorded in
PBS at a concentration of c = 1.0 x 10-5 mol/L, emission wavelength stated in the graph (bottom,
Fig. S31 Normalized absorption and emission spectra of 11 (left) and 11a (right), recorded in
Fig. S32 Normalized absorption and emission spectra of 12 (left) and 12a (right), recorded in […]

Data set [3] addresses T1, gastrin-releasing peptide receptor (GRPR) (Homo sapiens, UniProt P30550).
T1 construct: host or cells: Human Embryonic Kidney 293 cells (HEK-GRPR)
Description: Competitive displacement assay on stably GRPR-transfected HEK cells using [125I]-Tyr4-bombesin. It counts as binding. Conditions: [125I]-Tyr4-bombesin as competitor, 1 h, ambient temperature, read-out: IC50 (GRPR affinity). As to the method:
as §4, §5
as §6, with “Opti-MEM I (GlutaMAX I) medium. 50 µL of a cell suspension containing […] were seeded in each well. To this, a total volume of 50 µL was added to each well, containing 25 µL (0.012” for “Opti-”
The competitor was added in 11 increasing concentrations ranging from 0.25 – 500 nM for 6 – […]
binding of the radioligand. After one hour of incubation at ambient temperature, the solution was filtrated and the filters were washed with cold PBS (3 times). The filters were collected and […]

For a further data set, the system named is PC-3 cells. In words: Confocal fluorescence microscopy on GRPR-positive PC-3 cells. It counts as cell-based, human. To be noted: 10 μM, 4 h incubation. Here is the method:
Figure 4 Confocal fluorescence microscopy images for pyridinium-based bioconjugate […]). […] (B) NIR detector window (660-720 nm, 6). (C) Transmitted light. […] After one hour of incubation at ambient temperature, the solution was filtrated and the filters were washed with cold PBS (3 times). The filters were collected and measured by γ-counting. […] were calculated by fitting the obtained data via a nonlinear regression analysis using GraphPad Prism Software (v5.04). […] PC-3 cells were cultured at 37°C in RPMI 1640 medium supplemented with 10% FCS, 1% L-Glutamine and 1% PenStrep in a humidified atmosphere containing 5% CO2. […] Fluorescence microscopy was performed on a Leica TCS SP8 confocal microscope with laser excitation wavelengths of 405 and 638 nm. Overlays of microscopies were generated directly with the operating software or afterwards using FIJI software (v1.50e). PC-3 cells (4 x 104) were seeded two days prior to the measurements in six-well culture plates, each well was equipped with cover slips for microscopy. Medium was exchanged after 24h. After 2 days, the medium was removed and the cells were washed carefully with PBS. Then, 1 mL of a 10 μM solution of 6 in antibiotic-free medium was added, followed by incubation for 4h. […]

Data set [4] is classed as physicochemical. To be noted: pH 7.4. As to the method: as §1, §2, §3
adding 5 µL of the respectively 68Ga-labeled compound (0.8 – 1.2 MBq) to a mixture of phosphate buffer (0.05 M, pH 7.4, 795 µL) and 1-octanol (800 µL). […] After subsequent centrifugation at 13 000 rpm for 5 min, 125 µL were taken from each phase and measured in a γ-counter. The logD values were calculated from three or four independent experiments, each performed in triplicate.
For 14, the water/1-octanol partition coefficient (logD) was determined by semipreparative HPLC. […]

Read-outs that look alike come from different tables or passages of the source.

T1 sequence (P30550 whole entry, species assumed): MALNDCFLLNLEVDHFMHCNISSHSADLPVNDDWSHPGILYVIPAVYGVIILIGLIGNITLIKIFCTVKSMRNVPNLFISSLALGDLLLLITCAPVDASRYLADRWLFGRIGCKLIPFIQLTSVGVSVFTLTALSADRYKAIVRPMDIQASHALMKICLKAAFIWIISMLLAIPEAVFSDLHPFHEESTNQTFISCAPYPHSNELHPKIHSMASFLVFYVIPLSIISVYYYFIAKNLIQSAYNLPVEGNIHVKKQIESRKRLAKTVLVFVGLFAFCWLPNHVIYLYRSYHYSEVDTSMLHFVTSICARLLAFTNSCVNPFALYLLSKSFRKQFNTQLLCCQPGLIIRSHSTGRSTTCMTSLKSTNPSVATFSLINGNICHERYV

Regarding `CSCC[C@H](NC(=O)[C@H](CC(C)C)NC(=O)[C@H](Cc1c[nH]cn1)NC(=O)CNC(=O)[C@@H](NC(=O)[C@H](C)NC(=O)[C@H](Cc1c[nH]c2ccccc12)NC(=O)[C@H](CCC(N)=O)NC(=O)CCOCCOCCOCCOCCNC(=O)CON=Cc1ccc(C(=O)NCCCN(CCCNC(=O)c2ccc(C=NOCC(=O)NCCOCCOCCOCCOCCC(=O)N[C@@H](CCC(N)=O)C(=O)N[C@@H](Cc3c[nH]c4ccccc34)C(=O)N[C@@H](C)C(=O)N[C@H](C(=O)NCC(=O)N[C@@H](Cc3c[nH]cn3)C(=O)N[C@@H](CC(C)C)C(=O)N[C@@H](CCSC)C(N)=O)C(C)C)cc2)CC(=O)N[C@H](CSC2CC(=O)N(CCN3C(=O)CC(SC[C@H](NC(=O)[C@H](CCCC[n+]4c(C)cc(/C=C/c5cc6c7c(c5)CCCN7CCC6)cc4C)NC(=O)CC[C@H](C(=O)O)N4CCN(CC(=O)O)CCN(CC(=O)O)CC4)C(N)=O)C3=O)C2=O)C(=O)NCCOCCOCC(N)=O)cc1)C(C)C)C(N)=O` (some centres unmarked) [Compound 6], the logD in data set [1] was -1.71 ± 0.05. Also, in data set [2] (1×10^−5 mol L^−1), the “Log ϵ” value is on record as 4.08 M ^−1 cm^−1 and the λ max was found to be 510 nm. In addition, in data set [2] (1×10^−5 mol L^−1, excitation wavelength λex=400 nm), the λem was determined as 630 nm. Besides, the concentration for half-maximal inhibition (IC50) in data set [3] came out at 19 ± 1.13 nM. Moreover, in the data set on PC-3 cells, the “cellular localization of the agent” value is on record as “cytoplasmic localization”.

As for `CSCC[C@H](NC(=O)[C@H](CC(C)C)NC(=O)[C@H](Cc1c[nH]cn1)NC(=O)CNC(=O)[C@@H](NC(=O)[C@H](C)NC(=O)[C@H](Cc1c[nH]c2ccccc12)NC(=O)[C@H](CCC(N)=O)NC(=O)CCOCCOCCOCCOCCNC(=O)CON=Cc1ccc(C(=O)NCCCN(CCCNC(=O)c2ccc(C=NOCC(=O)NCCOCCOCCOCCOCCC(=O)N[C@@H](CCC(N)=O)C(=O)N[C@@H](Cc3c[nH]c4ccccc34)C(=O)N[C@@H](C)C(=O)N[C@H](C(=O)NCC(=O)N[C@@H](Cc3c[nH]cn3)C(=O)N[C@@H](CC(C)C)C(=O)N[C@@H](CCSC)C(N)=O)C(C)C)cc2)CC(=O)N[C@H](CSC2CC(=O)N(CCN3C(=O)CC(SC[C@H](NC(=O)[C@H](CCCCNC(=O)c4ccccc4C4=c5cc6c7c(c5Oc5c4cc4c8c5CCCN8CCC4)CCC[N+]=7CCC6)NC(=O)CC[C@H](C(=O)O)N4CCN(CC(=O)O)CCN(CC(=O)O)CC4)C(N)=O)C3=O)C2=O)C(=O)NCCOCCOCC(N)=O)cc1)C(C)C)C(N)=O` (some centres unmarked) [Compound 13], in data set [1], the pH-dependent lipophilicity (logD) was -0.81 ± 0.05. Further, in data set [2] (1×10^−5 mol L^−1), the “Log ϵ” value came to 4.57 M ^−1 cm^−1, the Stokes shift is recorded as 20 nm and the λ max worked out at 590 nm. This molecule returned a λem in data set [2] (1×10^−5 mol L^−1, excitation wavelength λex=500 nm) of 610 nm. Moreover, the 50% inhibitory concentration (IC50) in data set [3] was determined as 18 ± 0.86 nM.

For the molecule `CSCC[C@H](NC(=O)[C@H](CC(C)C)NC(=O)[C@H](Cc1c[nH]cn1)NC(=O)CNC(=O)[C@@H](NC(=O)[C@H](C)NC(=O)[C@H](Cc1c[nH]c2ccccc12)NC(=O)[C@H](CCC(N)=O)NC(=O)CCOCCOCCOCCOCCNC(=O)CON=Cc1ccc(C(=O)NCCCN(CCCNC(=O)c2ccc(C=NOCC(=O)NCCOCCOCCOCCOCCC(=O)N[C@@H](CCC(N)=O)C(=O)N[C@@H](Cc3c[nH]c4ccccc34)C(=O)N[C@@H](C)C(=O)N[C@H](C(=O)NCC(=O)N[C@@H](Cc3c[nH]cn3)C(=O)N[C@@H](CC(C)C)C(=O)N[C@@H](CCSC)C(N)=O)C(C)C)cc2)CC(=O)N[C@H](CSC2CC(=O)N(CCN3C(=O)CC(SC(C)(C)C)C3=O)C2=O)C(=O)NCCOCCOCC(N)=O)cc1)C(C)C)C(N)=O` (some centres unmarked) [Compound 14], in data set [3], the IC50 was found to be 18.7 ± 1.37 nM. The logD in data set [4] was -0.88 ± 0.04.
